# Test results taken from patent US20110256557A1, “IDENTIFYING PARATHYROID HORMONE AGONISTS AND ANTAGONISTS” (DISCOVERYBIOMED, INC., priority 2008, published 2011).
# T1: PTH1R on cell surface (Homo sapiens, UniProt Q03431)
# T1 construct: HA; expressed in transfected cells; LRP6N-IgG conditioned medium came from transfected HEK 293 cells
# T1 sequence (Q03431 27-593): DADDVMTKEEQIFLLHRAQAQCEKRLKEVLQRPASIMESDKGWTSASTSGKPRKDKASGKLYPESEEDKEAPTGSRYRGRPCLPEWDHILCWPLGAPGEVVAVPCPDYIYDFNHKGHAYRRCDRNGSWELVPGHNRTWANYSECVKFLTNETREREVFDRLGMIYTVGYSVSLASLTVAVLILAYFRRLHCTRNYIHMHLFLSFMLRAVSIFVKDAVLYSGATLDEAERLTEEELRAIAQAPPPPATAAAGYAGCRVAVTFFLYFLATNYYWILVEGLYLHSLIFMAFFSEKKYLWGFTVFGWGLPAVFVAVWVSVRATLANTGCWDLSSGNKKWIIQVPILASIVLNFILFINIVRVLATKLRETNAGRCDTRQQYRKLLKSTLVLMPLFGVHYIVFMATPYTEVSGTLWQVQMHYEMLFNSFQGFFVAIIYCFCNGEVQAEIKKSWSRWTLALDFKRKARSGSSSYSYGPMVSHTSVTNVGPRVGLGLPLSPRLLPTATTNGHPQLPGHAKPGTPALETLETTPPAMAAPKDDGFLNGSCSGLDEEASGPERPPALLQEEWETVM
# T2: LRP6-PTH1R complex (Rattus norvegicus, UniProt P25961)
# T2 construct: endogenous LRP6 and endogenous PTH1R in UMR-106 cells; endogenous in cells; host or cells: UMR-106
# T2 sequence (P25961 27-591): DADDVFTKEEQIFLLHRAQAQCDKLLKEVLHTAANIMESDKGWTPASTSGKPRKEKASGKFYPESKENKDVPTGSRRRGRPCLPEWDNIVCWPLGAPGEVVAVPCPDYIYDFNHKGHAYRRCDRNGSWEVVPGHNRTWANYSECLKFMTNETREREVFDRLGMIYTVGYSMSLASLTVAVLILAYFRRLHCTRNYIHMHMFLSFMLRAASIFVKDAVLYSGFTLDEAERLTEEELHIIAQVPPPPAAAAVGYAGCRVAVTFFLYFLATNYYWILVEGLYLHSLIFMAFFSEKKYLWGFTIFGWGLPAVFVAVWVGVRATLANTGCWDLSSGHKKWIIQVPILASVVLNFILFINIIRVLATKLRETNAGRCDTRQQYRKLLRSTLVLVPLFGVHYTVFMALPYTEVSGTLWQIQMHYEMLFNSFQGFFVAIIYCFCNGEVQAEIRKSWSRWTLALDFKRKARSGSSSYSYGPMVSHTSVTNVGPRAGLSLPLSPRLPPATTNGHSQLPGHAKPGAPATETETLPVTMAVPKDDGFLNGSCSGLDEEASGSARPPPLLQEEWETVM
# B1: LRP6N-IgG: LRP6 extracellular domain fused with IgG (protein)
# chain: APLLLYANRRDLRLVDATNGKENATIVVGGLEDAAAVDFVFSHGLIYWSDVSEEAIKRTEFNKTESVQNVVVSGLLSPDGLACDWLGEKLYWTDSETNRIEVSNLDGSLRKVLFWQELDQPRAIALDPSSGFMYWTDWGEVPKIERAGMDGSSRFIIINSEIYWPNGLTLDYEEQKLYWADAKLNFIHKSNLDGTNRQAVVKGSLPHPFALTLFEDILYWTDWSTHSILACNKYTGEGLREIHSDIFSPMDIHAFSQQRQPNATNPCGIDNGGCSHLCLMSPVKPFYQCACPTGVKLLENGKTCKDGATELLLLARRTDLRRISLDTPDFTDIVLQLEDIRHAIAIDYDPVEGYIYWTDDEVRAIRRSFIDGSGSQFVVTAQIAHPDGIAVDWVARNLYWTDTGTDRIEVTRLNGTMRKILISEDLEEPRAIVLDPMVGYMYWTDWGEIPKIERAALDGSDRVVLVNTSLGWPNGLALDYDEGKIYWGDAKTDKIEVMNTDGTGRRVLVEDKIPHIFGFTLLGDYVYWTDWQRRSIERVHKRSAEREVIIDQLPDLMGLKATNVHRVIGSNPCAEENGGCSHLCLYRPQGLRCACPIGFELISDMKTCIVPEAFLLFSRRADIRRISLETNNNNVAIPLTGVKEASALDFDVTDNRIYWTDISLKTISRAFMNGSALEHVVEFGLDYPEGMAVDWLGKNLYWADTGTNRIEVSKLDGQHRQVLVWKDLDSPRALALDPAEGFMYWTEWGGKPKIDRAAMDGSERTTLVPNVGRANGLTIDYAKRRLYWTDLDTNLIESSNMLGLNREVIADDLPHPFGLTQYQDYIYWTDWSRRSIERANKTSGQNRTIIQGHLDYVMDILVFHSSRQSGWNECASSNGHCSHLCLAVPVGGFVCGCPAHYSLNADNRTCSAPTTFLLFSQKSAINRMVIDEQQSPDIILPIHSLRNVRAIDYDPLDKQLYWIDSRQNMIRKAQEDGSQGFTVVVSSVPSQNLEIQPYDLSIDIYSRYIYWTCEATNVINVTRLDGRSVGVVLKGEQDRPRAVVVNPEKGYMYFTNLQERSPKIERAALDGTEREVLFFSGLSKPIALALDSRLGKLFWADSDLRRIESSDLSGANRIVLEDSNILQPVGLTVFENWLYWIDKQQQMIEKIDMTGREGRTKVQARIAQLSDIHAVKELNLQEYRQHPCAQDNGGCSHICLVKGDGTTRCSCPMHLVLLQDELSCGEPPTCSPQQFTCFTGEIDCIPVAWRCDGFTECEDHSDELNCPVCSESQFQCASGQCIDGALRCNGDANCQDKSDEKNCEVLCLIDQFRCANGQCIGKHKKCDHNVDCSDKSDELDCYPTEEPAPQA
# modifications: left off: a dimerising Fc or GST
# B2: LRP6N: soluble N-terminal (extracellular) domain of LRP6; acts as a dominant-negative in PTH signaling (protein)
# chain: B1 chain
# modifications: left off: a dimerising Fc or GST
# notes: soluble N-terminal (extracellular) domain of LRP6; acts as a dominant-negative in PTH signaling
# Assays:
# [1] = test system: TCF/LEF luciferase reporter; assay: High-throughput screen validation, TCF/LEF luciferase reporter in osteosarcoma cell line; assay type: cell-based; settings: 96-well plate
# Experimental: Osteosarcoma cells were plated in a 96 well plate. The cells were transiently transfected with the TCF/LEF luciferase reporter using LipofectAMINE PLUS (Invitrogen; Carlsbad, Calif.). The cells were incubated overnight at 37° C. in OptiMEM-1 serum-free medium with the transfection reagents. The cells were washed and serum-containing medium was added to the cells for 8 hours. The serum-containing medium was replaced with serum-free medium and the cells were stimulated overnight with PTH and WNT3a. Supernatant from the stimulated cells was collected for detection of osteosclerostin, and the cells were subjected to a luciferase assay as previously described (Wan et al., Am. J. Pathol. 166:1379-92 (2005)).
# To determine agonists and antagonists of the additive signaling of the PTH receptor and the WNT receptor, (as well as any co-receptors) in bone cells, a high-throughput screen is designed. […] An osteosarcoma cell line is transiently transfected with a TCF/LEF luciferase reporter. The cells are treated with WNT3a and PTH and luciferase activity is determined (FIG. 46).
# PTH1R on cell surface = target: T1, PTH1R on cell surface; assay: Cell surface binding by immunofluorescence colocalization assay; assay type: cell-based
# Experimental: Cells were transfected with HA-PTH1R and treated with IgG conditioned medium or LRP6N-IgG conditioned medium for 1 hour followed by PTH (1-84) treatment for 15 minutes. Cells were then washed with phosphate buffered saline (PBS), fixed with 4% paraformaldehyde, permeabilized with 0.1% Triton X-100, and incubated with primary antibody followed by incubation with chromophore-conjugated secondary antibody. Digital pictures were taken using an Olympus, IX TRINOC camera fitted to an Olympus, IX70 Inverted Research Microscope (Olympus; Center Valley, Pa.) with objective lenses of Hoffman Modulation Contrast®, HMC 10 LWD PL FL, 0.3NA ∝/1, at room temperature, and processed using MagnaFire® SP imaging software. A […] TCs SP2 system was used for confocal imaging. The ratios of the number of cells showing in green to the number of cells showing in red were calculated. For each treatment, 100 cells on each of three different slides were analyzed.
# [2] = test system: luciferase reporter bearing TCF/LEF binding elements; assay: TCF/LEF luciferase reporter assay in UMR-106 cells; assay type: cell-based, rat; settings: UMR-106 cells treated with PTH
# Excerpt: HEK293, UMR-106 and mouse embryonic fibroblast (MEF) cells were maintained in Dulbecco's Modified Eagle Medium (DMEM) with 10% Fetal Calf Serum (FCS). Mouse Wnt3a conditioned medium (Wnt3a CM) was produced from mouse L cells stably transfected with mouse Wnt3a (American Type Culture Collection; Manassas, Va.) and control conditioned medium (Control CM) was from non-transfected L cells. IgG, LRP6N-IgG, DKK1, Sclerostin, VSVG-LRP6N and Myc-Fz8CRD conditioned media were produced from HEK 293 cells transfected with the individual plasmids. Transfections were carried out using lipofectamine reagent (Invitrogen; Carlsbad, Calif.). Luciferase assays were carried out in either UMR-106 or HEK 293 cells as described previously (Wan et al., Am. J. Pathol. 166:1379-92 (2005)), with 0.3 μg of TCF-Luc reporter plasmid plus 50 ng of Renilla luciferase plasmid (internal control) per well in the 12-well plate. Experiments were repeated at least three times with triplicate for each experiment.
# LRP6-PTH1R complex = target: T2, LRP6-PTH1R complex; assay: Co-immunoprecipitation of endogenous LRP6 and PTH1R in UMR-106 cells; assay type: cell-based
# Experimental: (§1) Cells were harvested in cavitation buffer (5 mM HEPES, pH 7.4, 3 mM MgCl2, 1 mM EGTA, 250 mM sucrose) containing protease and phosphatase inhibitors and homogenized by nitrogen cavitation (200 p.s.i., for 5 minutes) in a cell disruption bomb (Parr Instrument Co.; Moline, Ill.). The cell homogenate was centrifuged twice at 700 g for 10 minutes to pellet the nuclei. The supernatant was further centrifuged at 100,000 g (Beckman SW50.1 rotor) for 1 hour to separate the membrane and cytosol fractions, and the resulting membrane pellet was washed three times with cavitation buffer before use in the assays (Zhang et al., Biochem. J. 343:541-9 (1999)). Immunoprecipitation and Western blot analysis of cell lysates were performed as described previously (Wan et al., Am. J. Pathol. 166:1379-92 (2005)).
# LRP6 = LRP6 phosphorylation at PPPSP motifs, western blotting with Ab1490, UMR-106 cells; assay type: cell-based, rat; settings: endogenous LRP6; cells not given
# Experimental: as §1
# As phosphorylation of LRP6 at the PPPSP motifs plays a crucial role in activating downstream β-catenin signaling by Wnt, whether PTH induces phosphorylation of LRP6 at PPPSP motifs (Mao et al., Mol. Cell. 7:801-9 (2001); Tamai et al., Mol. Cell. 13:149-56 (2004); Davidson et al., Nature 438:867-72 (2005); Zeng et al., Nature 438:873-7 (2005)). Immunoprecipitated LRP6 from extracts of PTH-treated UMR-106 cells were monitored for their phosphorylation, by western blotting, with an antibody that recognizes phosphorylated PPPSP motifs (Ab1490) (Tamai et al., Mol. Cell. 13:149-56 (2004)). […] Phosphorylation of PPPSP motifs is required for axin recruitment from cytoplasm to LRP6 at cell membrane. […] Fz8CRD, a competitive inhibitor of the Wnt receptor Fz (Hsieh et al., Proc. Natl. Acad. Sci. USA 96:3546-55 (1999)), was used to exclude the possibility that these PTH effects are mediated through promotion of Wnts production or sensitization of Wnt-stimulated signaling. […] In contrast, LRP6N blocked PTH-stimulated LRP6 phosphorylation (FIG. 33).
molecule,measurement,setting,value
WNT3a,"stimulation of the TCF/LEF luciferase reporter, treatment alone",[1],stimulates
B1,immuno-colocalization with PTH1R on cell surface,"PTH1R on cell surface; with addition of PTH ligand (PTH (1-84), 15 minutes)",82.3%
same,immuno-colocalization with PTH1R on cell surface,"PTH1R on cell surface; without PTH ligand, cells transfected with HA-PTH1R",22.8%
B2,effect on PTH-stimulated TCF/LEF luciferase (transcriptional) activity,[2],inhibited
same,effect on PTH-induced association of endogenous LRP6 with PTH1R,LRP6-PTH1R complex,blocked
same,effect on PTH-stimulated LRP6 phosphorylation,LRP6,blocked
